The text below walks through data of patent US20240043859A1, “HERBICIDE-RESISTANT PROTEIN, AND GENE AND USE THEREOF” (QINGDAO KINGAGROOT CHEMICAL COMPOUND CO., LTD., priority 2020, published 2024).

Entries after “also recorded” stand apart in the source; their conditions may differ.

The subject of one data set is Arabidopsis thaliana. As to the kind of experiment: Herbicide resistance of transgenic Arabidopsis thaliana seedlings on plate medium (root growth). The format is in vivo. Particulars: Arabidopsis overexpressing the gene. In short, it runs like this:
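After 3 days of cold treatment at 4 °C, seeds were cultured at 22 °C under a 16 h/8 h light cycle on MS herbicide medium (0.3 μM 2,4-D in the screen). Root growth was scored against wild-type seedlings at one week. The material was T2 AAD-overexpressing lines (AtUbi10 promoter, MAS terminator, hygromycin marker), two events each, tested with 2,4-D, 2,4-DB sodium and MCPA.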

A short description of data set [1]: Chromogenic reaction of degrading herbicides in bacteria: 2,4-D. The format is cell-based, Escherichia coli. Particulars: recombinant E. coli expressing the gene, 2,4-D added to the medium, red = phenols. In short, it runs like this: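 Colour from 2,4-D degradation was detected at A510 after 5 min at room temperature, with 4-aminoantipyrine and ferricyanide added to culture supernatant in pH 10 borate. Cultures were AAD12-expressing or empty-vector (pET15b) BL21(DE3), grown overnight at 28 °C with 0.5 mM 2,4-D, 0.1 mM IPTG and 2 mM α-ketoglutarate.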

B1: QYD42: AAD-like enzyme, SEQ ID NO. 83; expressed from vectors pQY2309 (Arabidopsis), pQY2329 (maize), pQY2330 (soybean) (protein)
chain: MQITPIADATFGATVTGLRLATLDDAGFARLHAAWLQHALLVFPGQFLTNAEQIGFAKRFGPIERIGGGDIVAISNVKADGTVRQHSPAEWDDMMKVIVGNMAWHADSTYMPVMAQGAVFSAEVVPPTGGRTCFADMRAAYDALDDATRALVHQRSARHSLVYSQSKLGHVQQAGSAYVGYGMDTTATPLRPLVKRHPETGRLSLLIGRHAHAIPGLEEAESERFLEDLVAWACQPPRVVAHHWTAGDVVLWDNRCLLHRAEPWDFTLPRVMWHSRLAGHPETEAAPLV
modifications: Synthetic polypeptide, QYD42, D42
On to B1, for which, in the data set with Arabidopsis thaliana, the “Resistance of transgenic Arabidopsis thaliana: 2,4-D” value is given as “Yes” and the “Resistance of transgenic Arabidopsis thaliana: MCPA” value was “Yes”. Moreover, in data set [1], the “Chromogenic reaction of degrading herbicides in bacteria: 2,4-D” value was “Yes”. In addition, the “Chromogenic reaction of degrading herbicides in bacteria: 2,4-D” value in data set [1] (listed as D42) is listed as “could degrade 2,4-D; also recorded: capable of degrading 2,4-D”.
